What is called EC50 is the concentration needed to bring the measured effect to its halfway point. Low readings indicate a more potent agent, high ones a less potent agent.

Non-standard residues stand in square brackets, D forms with d. Residues, ends and D or L forms follow the SMILES beside them. Where only a bound is given, the exact number is not on record here.

This note sets out measurements from article PMC5645029 (Journal of medicinal chemistry, 2017).

For assay [1], the target named is T1, mMC5R (Mus musculus, UniProt P41149).
T1 sequence (P41149 whole entry): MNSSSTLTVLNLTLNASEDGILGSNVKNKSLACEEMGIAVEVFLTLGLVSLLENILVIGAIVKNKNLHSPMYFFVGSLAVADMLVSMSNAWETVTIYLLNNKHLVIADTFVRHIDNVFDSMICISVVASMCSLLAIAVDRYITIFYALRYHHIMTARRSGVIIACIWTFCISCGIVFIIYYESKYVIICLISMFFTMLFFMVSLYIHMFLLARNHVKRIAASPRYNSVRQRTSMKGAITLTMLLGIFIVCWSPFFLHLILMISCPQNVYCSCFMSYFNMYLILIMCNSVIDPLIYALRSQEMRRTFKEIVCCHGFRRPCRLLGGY
Assay [2] addresses mouse melanocortin-3 receptor (mouse) (UniProt P33033).
In assay [3] the target is mouse melanocortin-1 receptor (mouse) (UniProt Q01727).
Sequence of mouse melanocortin-1 receptor (mouse) (Q01727 whole entry): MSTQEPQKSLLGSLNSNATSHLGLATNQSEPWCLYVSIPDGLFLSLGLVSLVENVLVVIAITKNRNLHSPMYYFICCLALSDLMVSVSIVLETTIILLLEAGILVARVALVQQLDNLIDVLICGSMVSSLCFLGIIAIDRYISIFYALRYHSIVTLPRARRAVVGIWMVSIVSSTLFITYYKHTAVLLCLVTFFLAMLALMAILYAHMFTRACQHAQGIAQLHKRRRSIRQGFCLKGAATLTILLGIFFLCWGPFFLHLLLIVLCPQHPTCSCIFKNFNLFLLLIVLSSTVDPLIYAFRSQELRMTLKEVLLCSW
Assay [4] deals with mouse melanocortin-4 receptor (mouse) (UniProt P56450).
Sequence of mouse melanocortin-4 receptor (mouse) (P56450 whole entry): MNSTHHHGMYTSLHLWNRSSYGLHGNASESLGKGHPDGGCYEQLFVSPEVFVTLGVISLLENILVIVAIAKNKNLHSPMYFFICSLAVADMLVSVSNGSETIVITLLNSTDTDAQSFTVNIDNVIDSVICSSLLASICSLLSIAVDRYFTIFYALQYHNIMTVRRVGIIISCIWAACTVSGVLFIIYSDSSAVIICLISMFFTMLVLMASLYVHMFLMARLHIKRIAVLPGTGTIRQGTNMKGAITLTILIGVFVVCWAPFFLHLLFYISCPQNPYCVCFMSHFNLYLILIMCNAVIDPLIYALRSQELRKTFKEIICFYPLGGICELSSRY
The target of the next assay is mMC3R (Mus musculus, UniProt P33033). Description: AlphaScreen cAMP assay, agonist activity. Conditions: up to 100 μM concentrations. (In general: Bead proximity is the source of the signal in Alpha formats.)
Sequence of mMC3R (P33033 whole entry): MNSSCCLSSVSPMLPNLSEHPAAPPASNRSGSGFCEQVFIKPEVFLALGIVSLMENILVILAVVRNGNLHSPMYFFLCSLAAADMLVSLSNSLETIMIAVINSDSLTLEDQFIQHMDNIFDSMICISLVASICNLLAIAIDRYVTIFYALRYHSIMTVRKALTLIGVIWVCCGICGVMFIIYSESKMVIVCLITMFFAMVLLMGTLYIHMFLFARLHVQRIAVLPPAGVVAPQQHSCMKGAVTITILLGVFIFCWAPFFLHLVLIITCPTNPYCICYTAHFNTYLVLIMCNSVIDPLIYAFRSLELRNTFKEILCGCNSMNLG
Another assay has as its target mMC4R (Mus musculus, UniProt P56450). Description: AlphaScreen cAMP assay, agonist activity. The note with it: up to 100 μM concentrations.
Another assay addresses mMC1R (Mus musculus, UniProt Q01727). The experiment in a line: AlphaScreen cAMP assay, agonist activity. Conditions: up to 100 μM concentrations.
Assay [5] has as its target T1, mMC5R. Description: cell-based.

Sequence of mouse melanocortin-3 receptor (mouse) (P33033 whole entry): as above
Sequence of mMC4R (P56450 whole entry): as the sequence (P56450 whole entry) above
Sequence of mMC1R (Q01727 whole entry): as the sequence (Q01727 whole entry) above

In the case of `N=C(N)NCCC[C@@H]1NC(=O)[C@@H]2CCCN2C(=O)[C@H]2CCCN2C(=O)[C@H](Cc2ccccc2)NC(=O)[C@H](CCCCN)NC(=O)[C@H](CC(N)=O)NC(=O)[C@H](Cc2ccccc2)NC(=O)[C@H](Cc2ccccc2)NC1=O` [Peptide 18, c[Pro-Arg-Phe-Phe-Asn-Lys-Phe-DPro]], the “activity at the MC5R (in words)” value on mMC5R [1] is “partially stimulated”.

“c[Pro-Arg-Phe-Phe-Abu-Ala-Phe-DPro] (peptide)”: the agonist EC50 (cAMP AlphaScreen, HEK293 cells stably expressing the receptor) in assay [2], in assay [3] and in assay [4] was greater than 100 µM throughout.

Turning to “c[Pro-Arg-Phe-Phe-Dap-Ala-Phe-DPro] (peptide)”, the agonist EC50 (cAMP AlphaScreen, HEK293 cells stably expressing the receptor) in assay [2] and in assay [4] was greater than 100 µM throughout.

As for `C[C@@H]1NC(=O)[C@@H](CN)NC(=O)[C@H](Cc2ccccc2)NC(=O)[C@H](Cc2ccccc2)NC(=O)[C@H](CCCNC(=N)N)NC(=O)[C@@H]2CCCN2C(=O)[C@H]2CCCN2C(=O)[C@H](Cc2ccccc2)NC1=O` [Peptide 9, c[Pro-Arg-Phe-Phe-DDap-Ala-Phe-DPro]], the “agonist activity at the MC3R (in words)” value on mMC3R is given as “no agonist activity”. Moreover, the “agonist activity at the MC4R (in words)” value on mMC4R is “no agonist activity”. At mMC1R, the “agonist activity at the MC1R (in words)” value is listed as “no agonist activity”. Moreover, at mMC5R [5], the midpoint of the response, the EC50, lay at 0.11 µM.

Consider `C[C@@H]1NC(=O)[C@H](CO)NC(=O)[C@H](Cc2ccccc2)NC(=O)[C@H](Cc2ccccc2)NC(=O)[C@H](CCCNC(=N)N)NC(=O)[C@@H]2CCCN2C(=O)[C@H]2CCCN2C(=O)[C@H](Cc2ccccc2)NC1=O` [Peptide 5, c[Pro-Arg-Phe-Phe-Ser-Ala-Phe-DPro]], for which, at mMC3R, the “agonist activity at the MC3R (in words)” value is reported as “No agonist activity”. Besides, the “agonist activity at the MC4R (in words)” value on mMC4R is on record as “No agonist activity”. In addition, the “agonist activity at the MC1R (in words)” value on mMC1R is “No agonist activity”. At mMC5R [5], the EC50 came to 0.14 µM.

As for `N=C(N)NCCC[C@@H]1NC(=O)[C@@H]2CCCN2C(=O)[C@H]2CCCN2C(=O)[C@H](Cc2ccccc2)NC(=O)[C@H](CO)NC(=O)[C@H](CC(N)=O)NC(=O)[C@H](Cc2ccccc2)NC(=O)[C@H](Cc2ccccc2)NC1=O` [Peptide 21, c[Pro-Arg-Phe-Phe-Asn-Ser-Phe-DPro]] (cyclo(RFFNSF[dP]P)), the “agonist activity at the MC3R (in words)” value at mMC3R is “did not possess agonist activity”. Besides, the “agonist activity at the MC4R (in words)” value on mMC4R is given as “did not possess agonist activity”. Besides, at mMC1R, the “agonist activity at the MC1R (in words)” value is “did not possess agonist activity”.

The molecule `C[C@@H]1NC(=O)[C@H](Cc2c[nH]c3ccccc23)NC(=O)[C@H](Cc2ccccc2)NC(=O)[C@H](Cc2ccccc2)NC(=O)[C@H](CCCNC(=N)N)NC(=O)[C@@H]2CCCN2C(=O)[C@H]2CCCN2C(=O)[C@H](Cc2ccccc2)NC1=O` [Peptide 15, c[Pro-Arg-Phe-Phe-Trp-Ala-Phe-DPro]] (cyclo(RFFWAF[dP]P)) registered an EC50 on mMC5R [5] of 0.15 µM.

Take `C[C@@H]1NC(=O)[C@H](CC(N)=O)NC(=O)[C@H](Cc2ccccc2)NC(=O)[C@H](Cc2ccccc2)NC(=O)[C@H](CCCNC(=N)N)NC(=O)[C@@H]2CCCN2C(=O)[C@H]2CCCN2C(=O)[C@H](C)NC1=O` [Peptide 24, c[Pro-Arg-Phe-Phe-Asn-Ala-Ala-DPro]] (cyclo(RFFNAA[dP]P)): on mMC1R, the “agonist activity at the MC1R (in words)” value is listed as “no agonist activity”.

As for “c[Pro-Arg-Phe-Phe-DDap-Ala-Phe-DPro] (peptide)”, the agonist EC50 (cAMP AlphaScreen, HEK293 cells stably expressing the receptor) in assay [2], in assay [3] and in assay [4] was greater than 100 µM throughout.

Regarding cyclo(PRFFSAF[dP]) [c[Pro-Arg-Phe-Phe-Ser-Ala-Phe-DPro]], the agonist EC50 (cAMP AlphaScreen, HEK293 cells stably expressing the receptor) in assay [2], in assay [3] and in assay [4] was greater than 100 µM in each case.

B1: c[Pro-Arg-Phe-Phe-Leu-Ala-Phe-DPro] (peptide)
peptide: cyclo(PRFFLAF[dP])
SMILES: CC(C)C[C@@H]1NC(=O)[C@H](Cc2ccccc2)NC(=O)[C@H](Cc2ccccc2)NC(=O)[C@H](CCCNC(=N)N)NC(=O)[C@@H]2CCCN2C(=O)[C@H]2CCCN2C(=O)[C@H](Cc2ccccc2)NC(=O)[C@H](C)NC1=O
For B1, the agonist EC50 (cAMP AlphaScreen, HEK293 cells stably expressing the receptor) in assay [2], in assay [3] and in assay [4] was greater than 100 µM throughout.

B2: c[Pro-Arg-Phe-Phe-Thr-Ala-Phe-DPro] (peptide)
peptide: cyclo(PRFFTAF[dP])
SMILES: C[C@@H]1NC(=O)[C@H]([C@@H](C)O)NC(=O)[C@H](Cc2ccccc2)NC(=O)[C@H](Cc2ccccc2)NC(=O)[C@H](CCCNC(=N)N)NC(=O)[C@@H]2CCCN2C(=O)[C@H]2CCCN2C(=O)[C@H](Cc2ccccc2)NC1=O
For B2, the agonist EC50 (cAMP AlphaScreen, HEK293 cells stably expressing the receptor) in assay [2], in assay [3] and in assay [4] was greater than 100 µM throughout.

B3: c[Pro-Arg-Phe-Phe-Asn-Lys-Phe-DPro] (peptide)
peptide: cyclo(PRFFNKF[dP])
SMILES: N=C(N)NCCC[C@@H]1NC(=O)[C@@H]2CCCN2C(=O)[C@H]2CCCN2C(=O)[C@H](Cc2ccccc2)NC(=O)[C@H](CCCCN)NC(=O)[C@H](CC(N)=O)NC(=O)[C@H](Cc2ccccc2)NC(=O)[C@H](Cc2ccccc2)NC1=O
As for B3, the agonist EC50 (cAMP AlphaScreen, HEK293 cells stably expressing the receptor) in assay [4] is greater than 100 µM.

B4: c[Pro-Arg-Phe-Phe-Asn-Ala-Ala-DPro] (peptide)
peptide: cyclo(PRFFNAA[dP])
SMILES: C[C@@H]1NC(=O)[C@H](CC(N)=O)NC(=O)[C@H](Cc2ccccc2)NC(=O)[C@H](Cc2ccccc2)NC(=O)[C@H](CCCNC(=N)N)NC(=O)[C@@H]2CCCN2C(=O)[C@H]2CCCN2C(=O)[C@H](C)NC1=O
For B4, the agonist EC50 (cAMP AlphaScreen, HEK293 cells stably expressing the receptor) in assay [2], in assay [3] and in assay [4] was greater than 100 µM each time.

B5: c[Pro-Arg-Phe-Phe-His-Ala-Phe-DPro] (peptide)
peptide: cyclo(PRFFHAF[dP])
SMILES: C[C@@H]1NC(=O)[C@H](Cc2c[nH]cn2)NC(=O)[C@H](Cc2ccccc2)NC(=O)[C@H](Cc2ccccc2)NC(=O)[C@H](CCCNC(=N)N)NC(=O)[C@@H]2CCCN2C(=O)[C@H]2CCCN2C(=O)[C@H](Cc2ccccc2)NC1=O
Regarding B5, the agonist EC50 (cAMP AlphaScreen, HEK293 cells stably expressing the receptor) in assay [2], in assay [3] and in assay [4] was greater than 100 µM throughout.

As to cyclo(PRFFAAF[dP]) [c[Pro-Arg-Phe-Phe-Ala-Ala-Phe-DPro]], the agonist EC50 (cAMP AlphaScreen, HEK293 cells stably expressing the receptor) in assay [2], in assay [3] and in assay [4] was greater than 100 µM in each case.

As to cyclo(PRFFDAF[dP]) [c[Pro-Arg-Phe-Phe-Asp-Ala-Phe-DPro]], the agonist EC50 (cAMP AlphaScreen, HEK293 cells stably expressing the receptor) in assay [2], in assay [3] and in assay [4] was greater than 100 µM throughout.

Turning to cyclo(PRFFEAF[dP]) [c[Pro-Arg-Phe-Phe-Glu-Ala-Phe-DPro]], the figures for the agonist EC50 (cAMP AlphaScreen, HEK293 cells stably expressing the receptor) in assay [2], in assay [3] and in assay [4] were greater than 100 µM, 20.5 µM and greater than 100 µM, respectively.

B6: c[Pro-Arg-Phe-Phe-Asn-Ser-Phe-DPro] (peptide)
peptide: cyclo(PRFFNSF[dP])
SMILES: N=C(N)NCCC[C@@H]1NC(=O)[C@@H]2CCCN2C(=O)[C@H]2CCCN2C(=O)[C@H](Cc2ccccc2)NC(=O)[C@H](CO)NC(=O)[C@H](CC(N)=O)NC(=O)[C@H](Cc2ccccc2)NC(=O)[C@H](Cc2ccccc2)NC1=O
For the molecule B6, the agonist EC50 (cAMP AlphaScreen, HEK293 cells stably expressing the receptor) in assay [2], in assay [3] and in assay [4] was greater than 100 µM throughout.

Turning to cyclo(PRFFVAF[dP]) [c[Pro-Arg-Phe-Phe-Val-Ala-Phe-DPro]], the agonist EC50 (cAMP AlphaScreen, HEK293 cells stably expressing the receptor) in assay [2] and in assay [4] was greater than 100 µM each time.

B7: c[Pro-Arg-Phe-Phe-Asn-Gly-Phe-DPro] (peptide)
peptide: cyclo(PRFFNGF[dP])
SMILES: N=C(N)NCCC[C@@H]1NC(=O)[C@@H]2CCCN2C(=O)[C@H]2CCCN2C(=O)[C@H](Cc2ccccc2)NC(=O)CNC(=O)[C@H](CC(N)=O)NC(=O)[C@H](Cc2ccccc2)NC(=O)[C@H](Cc2ccccc2)NC1=O
Consider B7, for which the agonist EC50 (cAMP AlphaScreen, HEK293 cells stably expressing the receptor) in assay [2], in assay [3] and in assay [4] was greater than 100 µM throughout.

B8: c[Pro-Arg-Phe-Phe-Asn-Asp-Phe-DPro] (peptide)
peptide: cyclo(PRFFNDF[dP])
SMILES: N=C(N)NCCC[C@@H]1NC(=O)[C@@H]2CCCN2C(=O)[C@H]2CCCN2C(=O)[C@H](Cc2ccccc2)NC(=O)[C@H](CC(=O)O)NC(=O)[C@H](CC(N)=O)NC(=O)[C@H](Cc2ccccc2)NC(=O)[C@H](Cc2ccccc2)NC1=O
Regarding B8, the agonist EC50 (cAMP AlphaScreen, HEK293 cells stably expressing the receptor) in assay [2] and in assay [4] was greater than 100 µM each time.
